Assay results published in the DeepSol protein solubility set.

assay: soluble on expression in E. coli; label from the status in PepcDB or PDB records

Sequence | soluble on expression in E. coli
MGSDKIHHHHHHMTTHLTGTRDEWLTARRALLDAEKTLTRHSDALARRREALPWVRVDKTYRFDTEHGAATLDDLFDGRSQLLVYHFMFGPDYKAGCPSCSALADGFDGFAVHLANHDVTLAAVSRAPLAKLLAYRQRMGWRFPWASSEGGAFNFDFNVSFTEAQQRTGDVEYNYARAAHAMDVDPPPAAVAQFAATCGTDAATYARDRPGMSAFVREDGVVYHTYSTYARGLDALWGMYAWLDRAPLGRNETGVWWRRHDEYARD | not soluble
GATITHQEKLLTVDTTAHPFLKALGGHEGTDIFPLFMDPYNGLMVMRASFAPGLTLPLHFHTGTVHMYTISGCWYYTEYPGQKQTAGCYLYEPGGSIHQFNTPRDNEGQTEVIFMLSGCNVNFTQDGTYLGLSDAGVIKNWVDRAIREQDNGLRYIAAAVPTYAA | soluble
MAAFEYKALDAKGKQKKGTIEGDNARQVRQRLKEQGMIPVEVVEAKAKAAKSSGSVGFKRGIKTAELALITRQLSTLVQSGMPLEECLRAVSEQAEKPRIRTMIAAVRSKVTEGYPLADSLGDYPHVFDELFRSMVAAGEKSGHLDTVLERLAEYVENRQKMRSKLLQA | not soluble
AAPYRCPLCRAGCPSLASMQAHMRGHS | soluble
MNVVLVGTDPNGLTDALEAEGHTVMVADVGNRPGLEEAGIHEADVYLLTEMSQATSIAVAKDLNPDLRVVVYAEGSLPDFASRQTDLVVDPDLLGSDAVAEEL | not soluble
MSLHEAADGILETHVTWKDIEEAMQLSFGTYATFGDNMKATNISDLKGFQSIIALIEPDWIDVEKGKDLPKKFAVKISTQLALAVLSKIMKLGGENGFSEEKLNELGKLIRDGHNREVATYKLLEKMNHPDIPYTKVYGLKGYSDANDLKGFMIMEFIPNVRSIPMYEAILADDLISLVRGIATFAALGETLSEEEKAFAGGPEYLESMFEEVFTDEQLERIY | not soluble
MSLAYMPMTTVQHIATTNEKQAQKIIAELNAGASFDSQVRKYQNNRQAHTTAGKLAQFDSYNQTLAPAIVQATAKLRVGHYVTKPVKTVMATADTKDKPTYEIINVVSREGHHHHHH | soluble
MGSDKIHHHHHHEDDLSAKAWLKNMSQAMHDKQYKTSIIQLQADHIRPLVYIHGIVDNKEVALLEYLNGPPKNAVRVGNTVTFIEHDQPAYSVVAPRIQGIWPAALAGDLSQLEKGYQFVIGGRGRIAGRPGQMIRLLANDDNRYDAQVWIDMDTYLPLRFDSLNKEKQLLEQTMVIELIELTEPANILIEAAKQEWPAVMNQAERTDGKNWQFTWLPEGFDVVVRDHHRLIGIHEPVEYVALTDGLANISVYVARAGENPMPNELLIRNGLSMVVVKVGTLEVVAIGKVPSETLDKIANSLVLK | not soluble
GSYCPRNLHLLPTTDTYLSKVSDDPDNLEDVDDEELNAHLLNEEASKLKERIWIGLNADFLLEQESKRLKQE | soluble
GSETCIYSNWSPWSACSSSTCEKGKRMRQRMLKAQLDLSVPCPDTQDFQPCMGPGCSDEDG | soluble
MGHHHHHHSHMAVGTSALSKEPWWTLPENFHSPMVFHMEEDQEELIFGLDDTYLRCIELHSHTLIQLERCFTATGQTRVTVVGPPMAKQWLLLMFHCVGSQDSKCHARGLKMLERVRSQPLTNDDLVTSVSLPPYTGD | not soluble
MATKLTPKQKAQLDELSMSEKIAILLIQVGEDTTGEILRHLDIDSITEISKQIVQLNGTDKQIGAAVLEEFFAIFQSNQYINTGGLEYARELLTRTLGSEEAKKVMDKLTKSLQTQKNFAYLGKIKPQQLADFIINEHPQTIALILAHMEAPNAAETLSYFPDEMKAEISIRMANLGEISPQVVKRVSTVLENKLESLTSYKIEVGGLRAVAEIFNRLGQKSAKTTLARIESVDNKLAGAIKEMMFTFEDIVKLDNFAIREILKVADKKDLSLALKTSTKDLTDKFLNNMSSRAAEQFVEEMQYLGAVKIKDVDVAQRKIIEIVQSLQEKGVIQTGEEEDVIE | not soluble
MPWQQQPIRYSADLEKPSPREQADIEKIMAKLLKNNERAYDKYKHGLRDAHAKSHAILRGELIVNEGLPPELAQGLFAEPRTYPVIARLSSTSGVRRSDKTRGVRGLGLKVLGVQGEKILPDDSSTNQDFVMVTHEDFLFADAHAYAGLGMITASLLARLSDQALWLGSGLLDLVSKAGIKLPDNLMVFVAPNRPILGLEFFSSAPFRHGDHVAKYRFAPASENVKALSGQLLPRNPAPEQHRDMIAEFFADQTAEFDFSAQLCTDPVAMPIEDAGKNWDKSISPYVSVAKIVFGPQNPYSALRRAYGDDVLAFNSWRGLAEHRPLGSINRLKKTVYESSADYRHRVNRIDRHEPVDISELPDLEHHHHHH | not soluble
MEFKVGDTVVYPHHGAAVIEAIEHREMGGETLEYLVLQINQSDLVVRVPSKNAELVGVRDVVDDDGLQKVFGFLRETDVEEAGNWSRRFKANQERLASGDVNKVAEVVRDLWRRDQGKGLSAGEKRMLAKARQVLVGELALAENKDEKQTEEILAQVDATIERHRAENKGIEETKVEPLGDIDLDDLNFDDED | not soluble
MGHHHHHHSHMANSAGSMANSAGSSWHNDHNFSVSKQPNLVVHNHTVTVPEGETVKGDVTVKNGKLIIKGKIDGDVTVVNGEKYMASAGQVTGQIEEINQLFDWTWYKMKSAGKSVLDAFNPNGEE | not soluble
MANAFKLFPTRDTNYLEATYVHHDLNVVWLKLSFRVPLETLFLEYRQQGGHTLILSRQVYENILVRDTDFMSVFCNDLQAILEDSPAIERFFVELSPYYWGKEDFDKRMSAWSQSVQLYDWLVTFLDDRQEELKLKLVSLCEFTSLQILSIIRLISSNYLETIKLTFRKNDEQLESNFQEILKTKQWNNAKAAYVKGCCTPIASILHFQKATVQLDILSIDDLRVLKELATKGTLNIFKIRFHSIADSITDNSLIELFGESKHSFLWEWSINGIDNREIECIYSKTYKEFSIFYSEEYQKLGHGVPENNKSEETTLCTSEHSSKVLQNALLMKNILNHLERKDICRLQRTSRKIHESIANLKPDSKIVALEISLVKIECVTVNVFHKMGVKKLIYENVGLSNVDPTAKLITAMERHNQGVFGEEICFAHGRWQLGFSLSAFAVDLIRNLKDQKSEIQELWLDFSLTQARLRERPDKEHIKILVLATRQLLDVISSAGKTLDRQIPVKKLSIQALGHKPLLQILPLLNPVTLKTIEIQKSEVIMAKKPLNLNKVVQLDQWKNAEEVLIKSITAPGQIQHFLHFVVAEVNLESISMGDVLELKNVFQQNSNKLKKFKAFFENSDIDERIYDDQFLGFPYKRPENPSTNLPSVWFVRIPTSTVLHILYYKNRKMISFSRVSNSSVPSDALM | not soluble
MSLNNIAPQSPVMRRLTLQDNPAIARVIRQVSAEYGLTADKGYTVADPNLDELYQVYSQPGHAYWVVEYEGEVVGGGGIAPLTGSESDICELQKMYFLPAIRGKGLAKKLALMAMEQAREMGFKRCYLETTAFLKEAIALYEHLGFEHIDYALGCTGHVDCEVRMLRELEGHHHHHH | soluble
MGSDKIHHHHHHMTEKADGKARIVRLGQILRIFMEKEKVSSTWLSRQFQTTPRTIQRDLLLLKKSGFPLHEIRKGIYQLHKDLVRNLEVFDDTELALVVALKNIVGQLGRPFQTAAGNILDHLYDCVKSMPVFVKIDDAVPLDSALLNRILQAILKKRTVSFQYAAPHGSHAVNLEPYRVVYFSGFWYLIGNEPSTGILKRYALDKIENFKSSRQCFTAIPSDLDDVLRQSANIWFTEDANIEITVHIDARVSDYFKRRKMYPTQEIKEERPDGSLVVTFRVGNYEAIRDILKSWIPHFVILEPEDFRVSMLNDIKGWVEKQEQQSCLDNISF | not soluble
MHKPLRIATVTATCAVAGAVLYTTGAASAGQSTANSTHEPYNIGVLAKDIDAYYGTTLDADGVYQASPDSPYAADLARVDAAAKKQIDRAARTAHHKHTRPAVVFDIDDTLLLSLDYEKKNNYGYDGATWAAYVDRADRPAVPGSPELARYADKKGVEVFYNSGLGEAQRAAAVENLKKAGADVNLDASHMFLKDKANPPSYLAHCATPGSWTCTTVQYKAGTRRHIERDLGYDVVANFGDQYSDLQGGYADRTYKLPNPTYFVE | soluble
